Experimental findings from US20250171562A1 are described below.

B1: NIgG4E2A1(RS) (Fc fusion)
chain 1: DVQLQESGGGLVQAGGSLRLSCAASGRTISRYAVGWFRRPPAKEREFIGINWSGGSTTYADSAEGRFIISRDNAKNTVYLQMNSLKPEDTAVYYCAVPSVLVQGGISNPSQYDYWGQGTQVTVSRSGPPCPPCPAPEFLGGPSVFLFPPKPKDTLMISRTPEVTCVVVDVSQEDPEVQFNWYVDGVEVHNAKTKPREEQFNSTYRVVSVLTVLHQDWLNGKEYKCKVSNKGLPSSIEKTISKAKGQPREPQVYTLPPCQEEMTKNQVSLWCLVKGFYPSDIAVEWESNGQPENNYKTTPPVLDSDGSFFLYSRLTVDKSRWQEGNVFSCSVMHEALHNHYTQKSLSLSLGK
chain 2: EVQLLESGGGLVQPGGSLRLSCAASGFTFGNYDMAWVRQAPGKRPEWVSSIDTGGDITHYADSVKGRFTISRDNAKNTLYLQMNSLRPEDTAVYWCATDEEYALGPNEFDYYGQGTLVTVSSRSGPPCPPCPAPEFLGGPSVFLFPPKPKDTLMISRTPEVTCVVVDVSQEDPEVQFNWYVDGVEVHNAKTKPREEQFNSTYRVVSVLTVLHQDWLNGKEYKCKVSNKGLPSSIEKTISKAKGQPREPQVCTLPPSQEEMTKNQVSLSCAVKGFYPSDIAVEWESNGQPENNYKTTPPVLDSDGSFFLVSRLTVDKSRWQEGNVFSCSVMHEALHNHYTQKSLSLSLGK
B2: CIgG4E1A1(G4S)2 (Fc fusion)
chain 1: GPPCPPCPAPEFLGGPSVFLFPPKPKDTLMISRTPEVTCVVVDVSQEDPEVQFNWYVDGVEVHNAKTKPREEQFNSTYRVVSVLTVLHQDWLNGKEYKCKVSNKGLPSSIEKTISKAKGQPREPQVYTLPPCQEEMTKNQVSLWCLVKGFYPSDIAVEWESNGQPENNYKTTPPVLDSDGSFFLYSRLTVDKSRWQEGNVFSCSVMHEALHNHYTQKSLSLSLGKGGGGSGGGGSDVQLQESGGGLVQAGGSLRLSCLASGRTFTTTSGYNMGWFRQAPGKEREFVAGIKWVSGSNRAYAESVKGRFTISRDNAKNTVYLQMNSLKPEDTAVYYCAAATGQSYVPIREYEYVYWGQGTQVTVS
chain 2: GPPCPPCPAPEFLGGPSVFLFPPKPKDTLMISRTPEVTCVVVDVSQEDPEVQFNWYVDGVEVHNAKTKPREEQFNSTYRVVSVLTVLHQDWLNGKEYKCKVSNKGLPSSIEKTISKAKGQPREPQVCTLPPSQEEMTKNQVSLSCAVKGFYPSDIAVEWESNGQPENNYKTTPPVLDSDGSFFLVSRLTVDKSRWQEGNVFSCSVMHEALHNHYTQKSLSLSLGKGGGGSGGGGSEVQLLESGGGLVQPGGSLRLSCAASGFTFGNYDMAWVRQAPGKRPEWVSSIDTGGDITHYADSVKGRFTISRDNAKNTLYLQMNSLRPEDTAVYWCATDEEYALGPNEFDYYGQGTLVTVSS
B3: CIgG4E1A1(G4S)3 (Fc fusion)
chain 1: GPPCPPCPAPEFLGGPSVFLFPPKPKDTLMISRTPEVTCVVVDVSQEDPEVQFNWYVDGVEVHNAKTKPREEQFNSTYRVVSVLTVLHQDWLNGKEYKCKVSNKGLPSSIEKTISKAKGQPREPQVYTLPPCQEEMTKNQVSLWCLVKGFYPSDIAVEWESNGQPENNYKTTPPVLDSDGSFFLYSRLTVDKSRWQEGNVFSCSVMHEALHNHYTQKSLSLSLGKGGGGSGGGGSGGGGSDVQLQESGGGLVQAGGSLRLSCLASGRTFTTTSGYNMGWFRQAPGKEREFVAGIKWVSGSNRAYAESVKGRFTISRDNAKNTVYLQMNSLKPEDTAVYYCAAATGQSYVPIREYEYVYWGQGTQVTVS
chain 2: GPPCPPCPAPEFLGGPSVFLFPPKPKDTLMISRTPEVTCVVVDVSQEDPEVQFNWYVDGVEVHNAKTKPREEQFNSTYRVVSVLTVLHQDWLNGKEYKCKVSNKGLPSSIEKTISKAKGQPREPQVCTLPPSQEEMTKNQVSLSCAVKGFYPSDIAVEWESNGQPENNYKTTPPVLDSDGSFFLVSRLTVDKSRWQEGNVFSCSVMHEALHNHYTQKSLSLSLGKGGGGSGGGGSGGGGSEVQLLESGGGLVQPGGSLRLSCAASGFTFGNYDMAWVRQAPGKRPEWVSSIDTGGDITHYADSVKGRFTISRDNAKNTLYLQMNSLRPEDTAVYWCATDEEYALGPNEFDYYGQGTLVTVSS

In the experiment the target is mixture of three Der p 2 specific recombinant human IgE clones H10, H12, P4E (human) (UniProt P01854). As to the kind of experiment: RBL-SX38 IgE displacement, FACS.
Sequence of mixture of three Der p 2 specific recombinant human IgE clones H10, H12, P4E (human) (P01854 other isoform, or with tags, fused parts or gaps): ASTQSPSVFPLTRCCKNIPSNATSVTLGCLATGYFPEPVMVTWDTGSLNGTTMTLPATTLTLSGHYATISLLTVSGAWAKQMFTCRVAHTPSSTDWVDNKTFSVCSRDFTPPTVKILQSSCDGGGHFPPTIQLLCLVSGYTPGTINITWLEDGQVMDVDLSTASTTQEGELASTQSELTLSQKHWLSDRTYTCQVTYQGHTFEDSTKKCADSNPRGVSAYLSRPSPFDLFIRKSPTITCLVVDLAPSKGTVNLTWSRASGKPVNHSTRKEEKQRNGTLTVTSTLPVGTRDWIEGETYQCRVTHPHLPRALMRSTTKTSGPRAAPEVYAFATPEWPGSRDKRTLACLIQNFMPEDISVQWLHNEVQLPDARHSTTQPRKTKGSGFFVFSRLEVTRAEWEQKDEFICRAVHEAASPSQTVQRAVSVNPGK
Broadly, the EC50 is the concentration giving half of the maximal effect. Turning to B1, the EC50 was 2 nM and the Max effect/effect 1 µM amounted to 97%.

On to B2, for which the EC50 amounted to 35.6 nM and the Max effect/effect 1 µM was 99%.

Turning to B3, the EC50 is 24.1 nM and the Max effect/effect 1 µM worked out at 99%.
